Results as given in the supplement of paper PMC9170038.

test system: K4 kissing-loop RNA reporter; assay: apparent KD of K4 kissing-loop reporter; higher = weaker reporter binding; conditions: Eterna round: R107; input ligand: none
Procedure: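 RNA-MaP round R107: designed RNA switches with theophylline, tryptophan, arginine or FMN aptamers are transcribed on-chip within common flanks. They are titrated with a labelled K4 kissing-loop RNA reporter in RNA-MaP buffer (100 mM Tris pH 7.5, 80 mM KCl, 4 mM MgCl2), without ligand or with the indicated ligand. Median apparent KD per design.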
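Further: bound reporter read as fluorescence of individual clusters on recovered sequencing chips by microscopy, with normalized cluster intensities fitted with a binding model.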

Sequence | apparent KD of K4 kissing-loop reporter [nM]
GCUGAUCGUUUUCCACGAUGCGGCUAAUAAAAGGAUAUUGGUAUAUCAAGAAGGUUUGUUCUGUGUAGUGAUGUUGCACCGUGUU [theeternabot_sameState_KL_FMN_A_28] | 80.5
ACAGAUGCUAGUGAUACCAGACUAGCACUACGUAAUAUGUCAAGUGAUGUUUGACAACUAGUCCCUUGGCAGCGCGAUACGUCUG [Theo B SS t2] | 295
GGGUGGUAGGCGGCCGCCACUCUGAGCACCCACUGAGUGAUGUUCGUGGCGUAAGCCUGUUCUUAGAGGACCGGGUUUGUUGUUC [Exclusion Tryptophan B GF 17] | 178
AUUUUAGAGUGAUGUUCUAAUUGAUCAGAUACCAGACAAUUAUAAGUCCCUUGGCAGCUGUAGCCGAUAAAUUUAUUUAAUUUAA [JR_SSTheophyA_Sub024] | 302
UGACGCCUGUCGGCCGCCACUCACAGCAGCCAGUGAUGUUGGAUUGUAGCGGAGUGAUGUUUCGCGAGGACCGGGACUGCAGUUG [Same State Tryptophan B GF 13] | 260
AGGAUCCGUCGACAAAAGUCGACAUAAUCCAAGGAUAUGACGAAAGUCAGAAGGUGGGCAUAAGUCCAGUGAUGUUGGAGGAUCC [FmnA 18 #SwitchBubble #K4Late] | 587
UGUCAUUGGUCGGCCGCCACUAGGACCGGGUAUAACCCAGUGAUGUUGGUAAAUACGGCCGCCACUAGGACCGGGACCGAUGACU [TrypBS 14 #DoubleAptamer #SwitchBubble #K4Middle] | 255
UCUGGAGCAUAUGAUACCAGCAGUGAGAGACAGGAAGUAUAGUGAUGUUAUAUGAGAGAAUGCCCUUGGCAGCGUGUGCAGUGGC [SSTheophylB.P] | 65
UGAUAGGAGUGAAGGAGCGGGAGUGAUGUUCCCAAAAUGGAAGCCUGUAAAAUACAGGCCUCCCAGGUAGGUCGCACUCCUAUCU [KL-XARG-B17] | 101
AGACUACCUACACUGUCAAUAGACAGUGACUAGGAUAUGCUGAUAAGCAGAAGGAGUGAUGUUCCAAAUAAAAGGUGGUAGUCAU [FmnAX 18 #SwitchBubble #StaticStem #K4Early] | 142
CGAUCUUGGUCGGCCGCCACUACACCCACACCAAAUAGGAAAGUAGCGAGUGAUGUUUGUGACGUUAGGACCGGGACCACUGGUC [theeternabot_sameState_KL_Trp_B_25] | 526
AAGUGUUCUAGUGAUACCAGACAAUUUUAUUUUUUCUUUUUUGCUAAGUGAUGUUUAGCAGUCCCUUGGCAGCACUAUUUCACUA [JR_SSTheophyB_Sub018] | 106
GUCGAUGGUAACCGCUGACGUCGAUGAUGGGAGGAUAUGUUAGUUGACAGAAGGCCCAGUGAUGUUGGGCGUUUGUCUUGGUAUA [Ustecexe] | 145
UAAGAAUAAGUAGCAGUGAUGUUGCUACUACGAGGACCGGUACGGCCGCCACUCGAGCCGUACCAACUGCUACAAGGUACGAAUA [(H1)-(H2)-(Trp1)-(Trp2)-(T)'-(H)'-(T)''] | 242
AGUGUCAGUGAUGUUGAGAAGAUGGGUACUAAGGAUAUGCGGCGAUGCAGAAGGUAGAAUGAUUAGUUCGCAUGUUAUGAGGGAU [theeternabot_exclusion_KL_FMN_A_46] | 573
AGUGAAGUUAGUGAUGUGUGAGUUUGGGAAGGAGCGCCGAGGAAGGCAGGUAGGUCGCCCAGUGAUGUUGGUGUAAAGAUGAGAG [whbob_Ex_Arginine_A_2t122] | 158
AUAUACCAGUGAUGUUGGUAUACUAUCGAUACCAGUAGAUACCAAUACCCUUGGCAGCGAUAAGACCGUACUGUAGCCAGUACUU [Theo A SS t4] | 255
ACGUCCGGAUUAAUCGUGGGCAUGGUGGAUACCAGUUCUUUAAUGAACCCUUGGCAGCCACAUGAGUGAUGUUCAUGUGCGAUGA [KL-XTheo-A9 #analogue] | 141
AAGUGUCAUUAGACACACUGAUGUAUAAACUAGGAUAUGCUGAUAAGCAGAAGGAGUGAUGUUCCUUUCAUCAUCAGAAUUAAAU [KL-XFMN-A2] | 110
UGACUGGACUGAAGGAGCGCUGAACUCCUAGUGAUGUUAGGAUAACGAGACAAAGUCUCGAAGCAGGUAGGUCGCAGUCUAGUCU | 112
AUGCUUUUAAUAACACUAUAUACAACUGAAGGAGCGACAAUAAAGUCAGGUAGGUCGCAGAAUAAAUGAGUGAUGUUCAUUUUUA [JR_ExcArginiA_Sub009] | 92.2
UUAGUCUAGAGAGGAUAUCAGUGAUGUUGAUAUCAAGAUCAUAGAUAGAAUUCUAUCUAUGAUCAAUGAGAAGGCUCUAGACAUU [AK1 Exc FMN B] | 161

same assay, conditions: Eterna round: R107; input ligand: theophylline 20 uM

Sequence | apparent KD of K4 kissing-loop reporter [nM]
CCUGCAGCUGUAACCGAGUGAUGAUACGGACGAGGACCGGUACGGCCGCCACUCGCCAGUGAUGUUGGUGUGGGAGGACGUAACU [KL-XTryp-A23] | 256
AAGUGAUGUUGUAGUGAUGUUGUGAUGUUGCAGGAUAUAUAGUGAUGUAGAAGGGUAAGUACUGAUGUUGUUAGUAAGUGAUGUU [tvvbmullin] | 76.6
GCCUGGGCACGAAGGAGCGCCGUGACAGGUUACUGCCUUGGGCAGUGAUGUUGCUCAAUCUGGCAGGUAGGUCGCGUGCCCAGGC | 159
AGACUACCACACUGUCAAUAGACAGUGGACUAGGAUAUGCUGAUAAGCAGAAGGAGUGAUGUUCCUGGGUAGUCAAUAAAAUAAU [FmnAX 13 G28+G67] | 696
GGACGCCGGUCGGCCGCCACUCACAGCAGUGAUGUUGCUGAGCUUGUAGCGGAGUGAUGUUCCGAGAGGACCGGGACUGCAGUUU [Same State Tryptophan B GF 10] | 550
GGUUCCUCAGUGAUGUUGAGGUGACCUCGGCAGGAUAUAGGCAUUACUAGAAGGGCCAAAAGAACCCUGUCCAGCGACACAGGGU [Inatinar] | 259
GAUACACUUUCAGGUAUCCAGUGACUGGAUACCAGCAUGGAAACAUGCCCUUGGCAGCCAGAACUGGAAGUGAUGUUUCCAGUAA [Design7] | 214
GGUAGCAUGGCGGCCGCCACUUAGACCCUCCAGGAUGAGGGAAAAUAGCAGUGAUGUUGCUAGGUAAGGACCGGGCCAUGCUACC | 156
CAGACCACAGAGUGAUGUUCUGUGUCCGAAGGAGCGCGCGAGAGCGCAGGUAGGUCGCGGAUACAGUUGACGUACCUUCAAGACA [Arg A Ex t3] | 230
AAAUCGUUCAGAAGGAGCGUGGAUUAUUCUUAUAUAUUUAUUACGAGUGAUGUUCGUAAUUCACAGGUAGGUCGCUGAUCGAUAA [JR_ExcArginiB_Sub004] | 130
AAUAAAAUCACGGCCGCCACUGAAUAAUUGUUAAGUAGUGAUGUUACUUUACUUUUCUUAGUUAACAGGACCGGGUGAAUAUUUA [#18 K4 Tryptophan B Exclusion] | 101
UUGUUUUACUGAAGGAGCGGCAAUUGAUACGUAGAUAUAGUGAUGUUAUAUAAGAUAGAGAGCCAGGUAGGUCGCAGAGGUGUUU [ExArgB.S] | 180
UGUGAACAAAAGUAGAGUGGACCACUAUAGCGAGGACCGGUACGGCCGCCACUCGUAUAUGAAUUCAGUGAUGUUGAAAAGAGCU [whbob_EX_Tryp_A_t10] | 306
CAUAUUUCGGCGGCCGCCACUGACCAUAGCCUUCGAUGGCCAGUGAUGUUGGCCUCUGGCUCUAACAGGACCGGGCCGAAUUGUG [Uslaxe] | 145
AGACUACCACACUGUCAAUAGACAGUGAACUAGGAUAUGCUGAUAAGCAGAAGGAGUGAUGUUCCUAAUAAAAGGUAGUCAUAAU [FmnAX 16 #SwitchBubble #StaticStem #K4Early] | 587
ACACUUUACGUAGGAUAUGCGACGAGUGAUGUUCGUCAGGCGGCUUUAGCUUAAGCAAGCCGCCUAGCAGAAGGACGGGCAGUGU [Bigemalaza] | 185

Sequence | apparent KD of K4 kissing-loop reporter [nM]
GUCCCAGUGAUGUUGGUAGGCGAGCGGGAUACCAGCCAAGACUCAGGCCCUUGGCAGCCCACAUAUCCCACGUAGGGAGUAGCUC [Same State - Theophylline A (Freestyle 18)] | 274
AAUGCAUAGUGAAGGAGCGCGAUAAGCAGUGAUGUUGCUUAGUUAUUAGUGUUUAUUUAUACGCAGGUAGGUCGCACUUUGCAUA [JR_ExcArginiB_Sub018] | 105
UGAUAGCCAGUGAUGUUGGCAUGUACUGAAGGAGCGCGUGGAAACGCAGGUAGGUCGCAGUUCCUUGCCAAUUGAUCGAAAGAUC [#09 K4 Arginine A Exclusion] | 395
CUCAAGUGAGGAUUUCGACAUCAAGAUGUGAAGGAUAUGUUACCAAACAGAAGGUCACGAUGUCAUCUAUGAGUGAUGUUCAGGA [theeternabot_sameState_KL_FMN_A_31] | 186
AAGUGAUGUUGUAGUGAUGUUGUGAUGUUGCAGGAUAUAUAGUGAUGUAGAAGGGUAAGUACUGAUUUUGUUUGUGAGUGAUGUU [zqqzzrmullin] | 61.1
GCUGAUCGUUUUCCACGAUGCGGCUAAUAAAAGGAUAUUGGUAUAUCAAGAAGGUUUGUUCUGUGUAGUGAUGUUGCACCGUGUU [theeternabot_sameState_KL_FMN_A_28] | 111
ACAGAUGCUAGUGAUACCAGACUAGCACUACGUAAUAUGUCAAGUGAUGUUUGACAACUAGUCCCUUGGCAGCGCGAUACGUCUG [Theo B SS t2] | 305
GGGUGGUAGGCGGCCGCCACUCUGAGCACCCACUGAGUGAUGUUCGUGGCGUAAGCCUGUUCUUAGAGGACCGGGUUUGUUGUUC [Exclusion Tryptophan B GF 17] | 128
AUUUUAGAGUGAUGUUCUAAUUGAUCAGAUACCAGACAAUUAUAAGUCCCUUGGCAGCUGUAGCCGAUAAAUUUAUUUAAUUUAA [JR_SSTheophyA_Sub024] | 373
UGACGCCUGUCGGCCGCCACUCACAGCAGCCAGUGAUGUUGGAUUGUAGCGGAGUGAUGUUUCGCGAGGACCGGGACUGCAGUUG [Same State Tryptophan B GF 13] | 321
AGGAUCCGUCGACAAAAGUCGACAUAAUCCAAGGAUAUGACGAAAGUCAGAAGGUGGGCAUAAGUCCAGUGAUGUUGGAGGAUCC [FmnA 18 #SwitchBubble #K4Late] | 523
UGUCAUUGGUCGGCCGCCACUAGGACCGGGUAUAACCCAGUGAUGUUGGUAAAUACGGCCGCCACUAGGACCGGGACCGAUGACU [TrypBS 14 #DoubleAptamer #SwitchBubble #K4Middle] | 280
UCUGGAGCAUAUGAUACCAGCAGUGAGAGACAGGAAGUAUAGUGAUGUUAUAUGAGAGAAUGCCCUUGGCAGCGUGUGCAGUGGC [SSTheophylB.P] | 94.9
UGAUAGGAGUGAAGGAGCGGGAGUGAUGUUCCCAAAAUGGAAGCCUGUAAAAUACAGGCCUCCCAGGUAGGUCGCACUCCUAUCU [KL-XARG-B17] | 117
AGACUACCUACACUGUCAAUAGACAGUGACUAGGAUAUGCUGAUAAGCAGAAGGAGUGAUGUUCCAAAUAAAAGGUGGUAGUCAU [FmnAX 18 #SwitchBubble #StaticStem #K4Early] | 152
CGAUCUUGGUCGGCCGCCACUACACCCACACCAAAUAGGAAAGUAGCGAGUGAUGUUUGUGACGUUAGGACCGGGACCACUGGUC [theeternabot_sameState_KL_Trp_B_25] | 564
